Laboratory results reported in patent US20170050988A1, “DOTAM DERIVATIVES FOR THERAPEUTIC USE” (priority 2013, published 2017).
In brackets after ≈: the same amount, converted by molar mass. Entries after “also recorded” stand apart in the source; their conditions may differ. Starred links: 1 amine or outer side, 2 acyl side, 3 side chain; linkers in the order of their positions; H or OH if unused. Positions of bridges follow the written chain, without caps; N, C: chain ends. Non-standard residues stand in square brackets, D forms with d. Residues, ends and D or L forms follow the SMILES beside them. Chains are numbered I, II in the order given. *: point of attachment. X1 = CN1/C(=C/C=C/C=C/C2=[N+](CCCCCC(=O)NCCOCCOCCNC(=O)CN3CCN(CC(=O)NCCOCCOCCN[*:1])CCN(CC(=O)NCCOCCOCCN[*:3])CCN(CC(=O)NCCOCCOCCN[*:2])CC3)c3ccc4ccccc4c3C2(C)C)C(C)(C)c2c1ccc1ccccc21; X4 = CN1/C(=C/C=C/C=C/C2=[N+](CCCCCC(=O)NCCOCCOCCN*)c3ccc4ccccc4c3C2(C)C)C(C)(C)c2c1ccc1ccccc21; Sta = CC(C)C[C@H](N)[C@@H](O)CC(=O)O; Isovaleryl = CC(C)CC(=O)*

Key:
in vivo = conditions: male, C57BL/6J, mouse, in vivo
Experimental: (§1) Measurement of In Vivo Half Life of Compounds in Mice
(§2) Male C57 BL/6J mice aged 10 weeks were purchased from Harlan Laboratories (Blackthorn, Bicester, UK). Mice were housed in groups of 6 in individually vented cages, maintained at 21±2° C. on a 12-hour light/dark cycle and with food provided ad libitum. All experimental protocols were performed in compliance with the UK Animals (Scientific Procedures) Act 1986 regulations for the handling and use of laboratory animals (Home Office project license PPL no: 70/7288).
(§3) One hundred nanomoles of each of the compounds were injected into the intra-articular space following induction of anaesthesia by gaseous anaesthetic (2% isofluorane and O2). Planar fluorescence images of the knee joints was captured at the time points indicated by capturing the emission at 700 nm for 1 min after exposure at 630 nm under gaseous anaesthesia (2.5% isofluorane and O2) in a Kodak In Vivo FX Pro (Carestream, Woodbridge, USA). Planar X-ray images were obtained by exposure to X-rays for 20 seconds for co-registration purposes.
(§4) To calculate the half lives of the compounds in the joint, fluorescence images were analysed using the Carestream MI software (version 5.1). Circular regions of interest (ROI) of 25 pixels in diameter were defined to encompass the knee joint, which was defined by co-registration of X-ray images. The mean fluorescence intensity (MFI) of the ROI was obtained. Fluorescence images shown are false coloured using the rainbow spectrum, with purple being the lowest value and red being the highest value, and the range indicated in the figures. […] All statistical analysis was carried out using the Prism Software (Graphpad, La Jolla, USA).
(§5) We further evaluated the binding capacity of the probes to cartilage in vivo using optical imaging. 0.1 μmol of each of the compounds were injected intra-articularly into the knees of mice, and in vivo fluorescent microscopy and X-ray were used to quantify localization and retention. The decay in signal was fitted to a two-phase exponential decay model to describe the rapid clearance of unbound probe from the joint and the slow clearance of bound probe from the cartilage (n=5).

knee joints of mice = assay: In vivo half life / retention of Cy5.5 probes in mouse knee joints (optical imaging)
Experimental: as §1, §2, §3, §4, §5

[1] = Solubility in phosphate buffer; format: physicochemical; conditions: phosphate buffer at pH 7.4
[2] = system: pig articular cartilage explants; assay: Ex vivo GAG release model with pig articular cartilage explants; format: cell-based; conditions: explants pre-incubated with 1 μM inhibitor 24 h, then washed
Cathepsin D = target: T1, Cathepsin D (Homo sapiens, UniProt P07339); assay: Cathepsin D enzyme assay; format: biochemical; conditions: purified Cathepsin D, pH 4.5, 37° C.; read-out: IC50
T1 construct: purchased Biomol Se-199
Experimental: For quantification of Cathepsin D inhibitory activity, an enzymatic assay was used that measures the turnover of a quenched, fluorescenctly-labeled, Cathepsin D-cleavable, peptide substrate over time.
Specifically, 13 ng of purified Cathepsin D enzyme (Biomol; Cat.No. Se-199) was administered per well of a 96 well plate, substance/inhibitor of interest was added and the mixture incubated for 10 min. at 37° C. Then, the enzymatic reaction was started by addition of fluorescenctly-labeled, Cathepsin D-Substrat ([…] (7-Methoxycoumarin-4-yl)-acetyl-Pro-Leu-Gly-Leu-(3 [2,4-dinitrophenyl]-L-2,3-diaminopropionyl)-Ala-Arg-NH2 (Bachem M-1895). The reaction volume amounts to 30 μl and contains 50 mM acetic acid, 200 mM NaCl and 0.003% Brij 35 and was adjusted to pH 4.5 with acetic acid. By cleavage of the peptide chain, the […] is released and the emission of fluorescence dye is measured using excitation/emission wavelengths ([…]) on a Tecan Spectrafluor Plus—instrument at 37° C. for 10 min. For the determination of the compound dose response, a 10 mM DMSO stock solution was diluted and tested in a ten-point, three-fold dilution series run in duplicate beginning at 30 μM final concentration. Data were analyzed using a four-parameter curve fit with a fixed minimum and maximum experimentally defined as the average positive and negative controls on each plate.

[3] = system: pig articular cartilage explants; assay: Ex vivo binding assay with pig articular cartilage explants; conditions: 5 μM probe, 24 h incubation, washed; integrated fluorescence
Experimental: To evaluate the cartilage targeting affinities of these five DOTAM-derived compounds, we performed an ex vivo binding assay of these Cy 5.5-labeled probes with pig articular cartilage explants. In these ex vivo experiments, whole-depth pig articular cartilage blocks were incubated with 5 μM of each probe for 24 h, washed 3 times for 10 min each with PBS buffer at 37° C. to remove non-binding probes, then imaged using fluorescent microscopy. The intensity of the near infrared fluorescent signal from Cy 5.5 presents the relevant amount of these probes remaining in the cartilage.

[4] = 100 nmol, First Half Life (h), 100 nmol intra-articular, mouse knee, two phase decay fit of fluorescence, fast half life (t1), loss from the joint space
[5] = 100 nmol, Terminal Half Life (h), 100 nmol intra-articular, mouse knee, two phase decay fit, slower half life (t2, t1/2beta), loss of cartilage-bound compound

T1 sequence (P07339 65-412): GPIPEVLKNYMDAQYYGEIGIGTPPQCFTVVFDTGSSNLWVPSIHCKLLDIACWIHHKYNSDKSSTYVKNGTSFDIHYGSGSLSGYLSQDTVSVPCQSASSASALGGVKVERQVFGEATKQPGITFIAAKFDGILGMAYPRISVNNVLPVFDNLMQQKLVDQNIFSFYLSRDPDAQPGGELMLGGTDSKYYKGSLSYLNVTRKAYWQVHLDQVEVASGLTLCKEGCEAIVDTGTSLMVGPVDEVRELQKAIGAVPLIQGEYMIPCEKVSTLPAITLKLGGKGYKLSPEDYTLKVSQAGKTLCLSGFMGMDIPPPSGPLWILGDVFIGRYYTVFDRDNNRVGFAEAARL

**Q.** For CC(=O)N[C@@H](Cc1ccc(O)cc1)C(=O)N[C@@H](CCCNC(=N)N)C(=O)N[C@@H](CC(C)C)C(=O)NCC(=O)N[C@@H](CCCNC(=N)N)C(=O)N[C@@H](Cc1c[nH]c2ccccc12)C(=O)NCCOCCOCCNC(=O)CCCCC[N+]1=C(/C=C/C=C/C=C2/N(C)c3ccc4ccccc4c3C2(C)C)C(C)(C)c2c1ccc1ccccc21 [HHY-258B, AcYRLGRW-Cy5.5] (Ac-YRLGRW-X4), which half-life (in vivo; First Half Life (h)) is on record?
**A.** The half-life was 2 h.

**Q.** And the half-life (in vivo; Terminal Half Life (h))?
**A.** Its half-life is 35 h.

**Q.** What does the source list for CC(=O)N[C@@H](Cc1c[nH]c2ccccc12)C(=O)N[C@@H](Cc1ccc(O)cc1)C(=O)N[C@@H](CCCNC(=N)N)C(=O)NCC(=O)N[C@@H](CCCNC(=N)N)C(=O)N[C@@H](CC(C)C)C(=O)NCCOCCOCCNC(=O)CCCCC[N+]1=C(/C=C/C=C/C=C2/N(C)c3ccc4ccccc4c3C2(C)C)C(C)(C)c2c1ccc1ccccc21 [HHY-259B, AcWYRGRL-Cy 5.5] (Ac-WYRGRL-X4)?
**A.** half-life (in vivo; [4]): 2.3 h; half-life (in vivo; [5]): 205 h

**Q.** Which half-life (in vivo; [4]) does the source give for CC(=O)N[C@@H](Cc1c[nH]c2ccccc12)C(=O)N[C@@H](Cc1ccc(O)cc1)C(=O)N[C@@H](CCCNC(=N)N)C(=O)NCC(=O)N[C@@H](CCCNC(=N)N)C(=O)N[C@@H](CC(C)C)C(=O)NCCOCCOCCNC(=O)CN1CCN(CC(=O)NCCOCCOCCNC(=O)CCCCC[N+]2=C(/C=C/C=C/C=C3/N(C)c4ccc5ccccc5c4C3(C)C)C(C)(C)c3c2ccc2ccccc32)CCN(CC(=O)NCCOCCOCCNC(=O)[C@H](CC(C)C)NC(=O)[C@H](CCCNC(=N)N)NC(=O)CNC(=O)[C@H](CCCNC(=N)N)NC(=O)[C@H](Cc2ccc(O)cc2)NC(=O)[C@H](Cc2c[nH]c3ccccc23)NC(C)=O)CCN(CC(=O)NCCOCCOCCNC(=O)[C@H](CC(C)C)NC(=O)[C@H](CCCNC(=N)N)NC(=O)CNC(=O)[C@H](CCCNC(=N)N)NC(=O)[C@H](Cc2ccc(O)cc2)NC(=O)[C@H](Cc2c[nH]c3ccccc23)NC(C)=O)CC1 [HHY-290, (AcWYRGRL)3-DOTA-Cy5.5] (I: Ac-WYRGRL / II: Ac-WYRGRL / III: Ac-WYRGRL; linker I:C-II:C-III:C via X1) here?
**A.** Its half-life is 8.9 h.

**Q.** And the half-life (in vivo; [5])?
**A.** The half-life was 1280 h.

**Q.** What about the retained initial signal (knee joints of mice; 8 days after intra-articular injection, 0.1 μmol, mouse knee) of the same compound?
**A.** The retained initial signal was 40%.

**Q.** Which results are given for CC(=O)N[C@@H](Cc1ccc(O)cc1)C(=O)N[C@@H](CCCNC(=N)N)C(=O)N[C@@H](CC(C)C)C(=O)NCC(=O)N[C@@H](CCCNC(=N)N)C(=O)N[C@@H](Cc1c[nH]c2ccccc12)C(=O)NCCOCCOCCNC(=O)CN1CCN(CC(=O)NCCOCCOCN)CCN(CC(=O)NCCOCCOCCN)CCN(CC(=O)NCCOCCOCCNC(=O)CCCCCN2c3ccc4ccccc4c3C(C)(C)C2/C=C/C=C/C=C2/N(C)c3ccc4ccccc4c3C2(C)C)CC1 (some centres unmarked) [HHY-322, AcYRLGRW-DOTA-Cy5.5]?
**A.** half-life (in vivo; First Half Life (h)): 1.67 h; half-life (in vivo; Terminal Half Life (h)): 13 h; Terminal Half Life (knee joints of mice; male, C57BL/6J, mouse, in vivo): 12.5 h

**Q.** Which “First Half Life” value (knee joints of mice; mouse, in vivo) does the source give for AcNH-DOTA-Cy 5.5 [HHY-306] here?
**A.** The value was 0.5 h.

**Q.** And the “Terminal Half Life” value (knee joints of mice; mouse, in vivo)?
**A.** Its value is 9.8 h.

**Q.** Which results are given for CC(=O)N[C@@H](Cc1ccc(O)cc1)C(=O)N[C@@H](CCCNC(=N)N)C(=O)N[C@@H](CC(C)C)C(=O)NCC(=O)N[C@@H](CCCNC(=N)N)C(=O)N[C@@H](Cc1c[nH]c2ccccc12)C(=O)NCCOCCOCCNC(=O)CN1CCN(CC(=O)NCCOCCOCCNC(=O)CCCCC[N+]2=C(/C=C/C=C/C=C3/N(C)c4ccc5ccccc5c4C3(C)C)C(C)(C)c3c2ccc2ccccc32)CCN(CC(=O)NCCOCCOCCNC(=O)[C@H](Cc2c[nH]c3ccccc23)NC(=O)[C@H](CCCNC(=N)N)NC(=O)CNC(=O)[C@H](CC(C)C)NC(=O)[C@H](CCCNC(=N)N)NC(=O)[C@H](Cc2ccc(O)cc2)NC(C)=O)CCN(CC(=O)NCCOCCOCCNC(=O)[C@H](Cc2c[nH]c3ccccc23)NC(=O)[C@H](CCCNC(=N)N)NC(=O)CNC(=O)[C@H](CC(C)C)NC(=O)[C@H](CCCNC(=N)N)NC(=O)[C@H](Cc2ccc(O)cc2)NC(C)=O)CC1 [HHY-293, (AcYRLGRW)3-DOTA-Cy5.5] (I: Ac-YRLGRW / II: Ac-YRLGRW / III: Ac-YRLGRW; linker I:C-II:C-III:C via X1)?
**A.** half-life (in vivo; First Half Life (h)): 3 h; half-life (in vivo; Terminal Half Life (h)): 19 h; Terminal Half Life (knee joints of mice; male, C57BL/6J, mouse, in vivo): 18.75 h

**Q.** With CC(C)CC(=O)N[C@H](C(=O)N[C@H](C(=O)N[C@@H](CC(C)C)[C@@H](O)CC(=O)N[C@@H](C)C(=O)N[C@@H](CC(C)C)[C@@H](O)CC(=O)O)C(C)C)C(C)C [Pepstatin A, reference compound] (Isovaleryl-VV[Sta]A[Sta]-OH) as the compound, how does the solubility [1] read?
**A.** Its solubility is 820 µg/mL (≈ 1200 µM).

**Q.** And the “effect on acid-stimulated GAG release / degradation (FIG. 3)” value ([2]; pH 5.0)?
**A.** The value was “no effect at all; also recorded: not effective”.

**Q.** Which results are given for CC(=O)N[C@@H](Cc1c[nH]c2ccccc12)C(=O)N[C@@H](Cc1ccc(O)cc1)C(=O)N[C@@H](CCCNC(=N)N)C(=O)NCC(=O)N[C@@H](CCCNC(=N)N)C(=O)N[C@@H](CC(C)C)C(=O)NCCOCCOCCNC(=O)CN1CCN(CC(=O)NCCOCCOCCNC(=O)C[C@H](O)[C@H](CC(C)C)NC(=O)[C@H](C)NC(=O)C[C@H](O)[C@H](CC(C)C)NC(=O)[C@@H](NC(=O)[C@@H](NC(=O)CC(C)C)C(C)C)C(C)C)CCN(CC(=O)NCCOCCOCCNC(=O)[C@H](CC(C)C)NC(=O)[C@H](CCCNC(=N)N)NC(=O)CNC(=O)[C@H](CCCNC(=N)N)NC(=O)[C@H](Cc2ccc(O)cc2)NC(=O)[C@H](Cc2c[nH]c3ccccc23)NC(C)=O)CCN(CC(=O)NCCOCCOCCNC(=O)[C@H](CC(C)C)NC(=O)[C@H](CCCNC(=N)N)NC(=O)CNC(=O)[C@H](CCCNC(=N)N)NC(=O)[C@H](Cc2ccc(O)cc2)NC(=O)[C@H](Cc2c[nH]c3ccccc23)NC(C)=O)CC1 [HHY-299, (AcWYRGRL)3-DOTA-Pepstatin A]?
**A.** IC50 (Cathepsin D): 3.3 nM; inhibition of GAG release ([2]; 24 hours after stimulation at pH 5.0): 34%; inhibition of GAG release ([2]; 48 hours after stimulation at pH 5.0): 18%

**Q.** With CC(C)CC(=O)N[C@H](C(=O)N[C@H](C(=O)N[C@@H](CC(C)C)[C@@H](O)CC(=O)N[C@@H](C)C(=O)N[C@@H](CC(C)C)[C@@H](O)CC(=O)NCCOCCOCCNC(=O)CN1CCN(CC(=O)NCCOCCOCCN)CCN(CC(=O)NCCOCCOCCN)CCN(CC(=O)NCCOCCOCCN)CC1)C(C)C)C(C)C [HHY-325] as the compound, how does the IC50 (Cathepsin D) read?
**A.** The IC50 was 2.9 nM.

**Q.** Which results are given for CC(=O)N[C@@H](Cc1c[nH]c2ccccc12)C(=O)N[C@@H](Cc1ccc(O)cc1)C(=O)N[C@@H](CCCNC(=N)N)C(=O)NCC(=O)N[C@@H](CCCNC(=N)N)C(=O)N[C@@H](CC(C)C)C(=O)NCCOCCOCCNC(=O)CN1CCN(CC(=O)NCCOCCOCCN)CCN(CC(=O)NCCOCCOCCN)CCN(CC(=O)NCCOCCOCCNC(=O)CCCCC[N+]2=C(/C=C/C=C/C=C3/N(C)c4ccc5ccccc5c4C3(C)C)C(C)(C)c3c2ccc2ccccc32)CC1 [HHY-312, AcWYRGRL-DOTA-Cy5.5]?
**A.** fold mean increase of probe accumulation in cartilage vs non-targeted HHY-306 [3]: 11.2 fold; fold mean increase of probe accumulation in cartilage vs scrambled HHY-322 [3]: 6.0 fold; half-life (in vivo; First Half Life (h)): 4 h; half-life (in vivo; Terminal Half Life (h)): 210 h; Terminal Half Life (knee joints of mice; male, C57BL/6J, mouse, in vivo): 210.7 h
